In patent US20240279321A1 (THERINI BIO, published 2024):
Numbering of substitutions follows the chain as printed. Where no end group is shown, it is not given here. The star is where a group is joined. Biotin = O=C1N[C@H]2[C@H](CS[C@H]2CCCCC(=O)*)N1

Experiments:
[1] = target: T1, Human fibrin γ377-395 (Human P2 peptide) (human); test: BLI (ForteBio Octet): N-term biotinylated fibrin P2G peptide on SA tip, IgG in solution 100 nM (avid)
T1 construct: In the crystal models, residues 410-421 of chain A are ordered; also called fibrin P2 peptide; fibrin P2 gamma peptide
T1 peptide: Biotin-YSMKKTTMKIIPFNRLTIG

[2] = target: T1, Human fibrin γ377-395 (Human P2 peptide); test: BLI (Octet): N-term biotinylated P2G peptide on SA sensor, 100nM Fab in solution
[3] = target: T1, Human fibrin γ377-395 (Human P2 peptide); test: BLI (ForteBio Octet): N-term biotinylated fibrin P2G peptide on SA tip, IgG in solution 100 nM (avid) [Cont.]
[4] = target: T1, Human fibrin γ377-395 (Human P2 peptide); test: BLI (ForteBio Octet): N-term biotinylated fibrin P2G peptide on SA tip, Fab in solution 100 nM (monovalent)
[5] = target: T1, Human fibrin γ377-395 (Human P2 peptide); test: ELISA (N-P2 ELISA), RFU readout
Ext NP2 (Rabbit) = target: T2, Ext NP2 (Rabbit); test: ELISA of ADI-60143 IgG on Ext NP2 peptide (rabbit), RFU readout; drawn table, column Rabbit
T2 construct: also called Rabbit P2 peptide extended
T2 peptide: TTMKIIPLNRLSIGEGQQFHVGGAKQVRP

[6] = target: T3, Human P2 peptide extended (human); test: ELISA of ADI-60143 IgG on Ext NP2 peptide (human), RFU readout; drawn table, column Human
T3 construct: also called human extended P2 peptide
T3 peptide: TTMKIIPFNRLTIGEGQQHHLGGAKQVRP

[7] = target: T1, Human fibrin γ377-395 (Human P2 peptide); test: ELISA of ADI-60143 IgG on NP2 peptide (human), RFU readout; drawn table, column Human
Rat P2 peptide extended = target: T4, Rat P2 peptide extended (rat); test: ELISA of ADI-60143 IgG on Ext NP2 peptide (rat), RFU readout; drawn table, column Rat; the curve has no upper plateau at 500 nM
T4 construct: also called rat extended P2 peptide
T4 peptide: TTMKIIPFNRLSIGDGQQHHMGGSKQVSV

NP2 (Rabbit) [8] = target: T5, NP2 (Rabbit) (not fully specified (N-terminus)); test: ELISA of ADI-60143 IgG on NP2 peptide (rabbit), RFU readout; drawn table, column Rabbit
T5 construct: 'N-P2' elsewhere in the drawings stands for the N-term biotinylated P2 peptide; also called Rabbit P2 peptide; NP2 Fab (Rabbit) in the legend box of panel A
T5 peptide: YSMKKTTMKIIPLNRLSIG

Rat P2 peptide [9] = target: T6, Rat P2 peptide (rat); test: ELISA of ADI-60143 IgG on NP2 peptide (rat), RFU readout; drawn table, column Rat
T6 construct: also called Mouse/Rat P2 peptide
T6 peptide: YSMKETTMKIIPFNRLSIG

[10] = target: T1, Human fibrin γ377-395 (Human P2 peptide); test: BLI (Octet): N-term biotinylated P2G peptide on SA sensor, 100nM Fab in solution; the same panel stands twice in the middle row
[11] = target: T1, Human fibrin γ377-395 (Human P2 peptide); test: BLI (Octet RED384), Fab on P2 peptide; on-rate phase 0-300 s, off-rate phase 300-600 s
[12] = target: T1, Human fibrin γ377-395 (Human P2 peptide); test: ELISA of ADI-60143 Fab on NP2 peptide (human), RFU readout; drawn table, column Human
NP2 (Rabbit) [13] = target: T5, NP2 (Rabbit); test: ELISA of ADI-60143 Fab on NP2 peptide (rabbit), RFU readout; drawn table, column Rabbit
Rat P2 peptide [14] = target: T6, Rat P2 peptide; test: ELISA of ADI-60143 Fab on NP2 peptide (rat), RFU readout; drawn table, column Rat
[15] = target: T1, Human fibrin γ377-395 (Human P2 peptide); test: BLI (ForteBio Octet): N-term biotinylated fibrin P2G peptide on SA tip, Fab in solution 100 nM (monovalent)
[16] = target: T1, Human fibrin γ377-395 (Human P2 peptide); test: BLI (ForteBio Octet): N-term biotinylated fibrin P2G peptide on SA tip, Fab in solution 100 nM (monovalent) [Cont.]
[17] = target: T1, Human fibrin γ377-395 (Human P2 peptide); test: ELISA (N-P2 ELISA), RFU readout; C is the duplicate of clone 61278
[18] = target: T1, Human fibrin γ377-395 (Human P2 peptide); test: BLI (ForteBio Octet): N-term biotinylated fibrin P2G peptide on SA tip, IgG in solution 100 nM (avid)

B1: 60140 (IgG) (antibody, V domains shown)
VH: QVQLVQSGAEVKKPGASVKVSCKASGYTFTSVWIHWVRQAPGQGLEWIGLIDPSDSYTNYNQKFRGRATLTVDTSTSTAYMELSSLRSEDTAVYYCASSRPTGGWGQGTTVTVSS
VL: DIVMTQSPLSLPVTPGEPASISCRSSKSLLHSSGITYLSWYLQKPGQSPQLLIYQMSNLASGVPDRFSGSGSGTDFTLKISRVEAEDVGVYYCAQNLELPLTFGGGTKVEIKR
Q: Does B1 bind [1]?
A: binds

B2: 56666 (parent) (Fab) (Fab, V domains shown)
VH: B1 VH with V32Y, I48M, A68V, L70M, R100D
VL: B1 VL
notes: also called ADI-56666; clone 56666 Fab
Q: B2 was tested. Which Kd [2] did it give?
A: 1300 nM

B3: 56657 (parent) (Fab) (Fab, V domains shown)
VH: B1 VH with V32Y, R100D
VL: B1 VL
notes: also called ADI-56657; clone 56657 Fab
Q: How did the Kd [2] turn out when B3 was run?
A: 264 nM

B4: 61255 (IgG) (antibody, V domains shown)
VH: B1 VH with V32Y, R100D, P101A
VL: B1 VL with I35H, S48P, N96A
notes: also called clone 61255 IgG
Q: Does B4 bind [3]?
A: binds

B5: 60140 (Fab) (Fab, V domains shown)
VH: B1 VH
VL: B1 VL
Q: Does B5 bind [4]?
A: binds

B6: 61273 (IgG) (antibody, V domains shown)
VH: B1 VH with V32T, I48M, A68V, L70M, R100K
VL: B1 VL with L38I
notes: also called ADI-61273; clone 61273 IgG
Q: Does B6 bind [3]?
A: binds

B7: 61275 (Fab) (Fab, V domains shown)
VH: B1 VH with V32S, I48M, A68V, L70M, R100A
VL: B1 VL with N96A
Q: Does B7 bind [4]?
A: binds

B8: antibody clone 60143 (full length ADI-60143 IgG) (antibody, V domains shown)
VH: B1 VH with V32T, R100K
VL: B1 VL
Q: How did the EC50 [5] turn out when B8 was run?
A: 0.08 nM

Q: And the EC50 (Ext NP2 (Rabbit))?
A: 5.97 nM

Q: What about the EC50 [6] of the same binder?
A: 7.25 nM

Q: What about the EC50 [7] of the same binder?
A: 0.11 nM

Q: What about the EC50 (Rat P2 peptide extended) of the same binder?
A: 139 nM

Q: What about the EC50 (NP2 (Rabbit) [8]) of the same binder?
A: 0.082 nM

Q: And the EC50 (Rat P2 peptide [9])?
A: 0.094 nM

B9: Fab of antibody clone 61278 (ADI-61278 Fab) (Fab, V domains shown, not shown: a dimerising Fc or GST)
VH: B1 VH with V32Y, I48M, A68V, L70M, R100D, P101A
VL: B1 VL with N96A
notes: The crystal model holds chain H residues 1-126 and 133-214 and chain L residues 1-213; also called Fab ADI61278
Q: What does the source list for B9?
A: Kd [10]: 38 nM; Kd [11]: 104 nM

B10: Fab of antibody clone 60143 (ADI-60143 Fab) (Fab, V domains shown)
VH: B1 VH with V32T, R100K
VL: B1 VL
notes: The crystal model holds chain H residues 1-127 and 134-214 and chain L residues 1-213; not shown: The papain cleavage limit is not stat
Q: How did the Kd [10] turn out when B10 was run?
A: 23 nM

Q: And the EC50 [12]?
A: 0.34 nM

Q: And the EC50 (NP2 (Rabbit) [13])?
A: 0.67 nM

Q: And the EC50 (Rat P2 peptide [14])?
A: 1.78 nM

Q: And the Kd [11]?
A: 70 nM

B11: ADI-61283 (Fab) (Fab, V domains shown)
VH: B1 VH with V32A, I48M, A68V, L70M, R100D, T102Y
VL: B1 VL with L59K, N96S
Q: Does B11 bind [15]?
A: binds

B12: 61285 (IgG) (antibody, V domains shown)
VH: B1 VH with V32S, I48M, A68V, L70M, R100D, T102H
VL: B1 VL with N96S
Q: Does B12 bind [1]?
A: binds

B13: 61273 (Fab) (Fab, V domains shown)
VH: B1 VH with V32T, I48M, A68V, L70M, R100K
VL: B1 VL with L38I
notes: also called ADI-61273; clone 61273 Fab
Q: Does B13 bind [16]?
A: binds

B14: 60183 (IgG) (antibody, V domains shown)
VH: B1 VH with V32T, I48M, A68V, L70M, R100K
VL: B1 VL
notes: also called ADI-60183; clone 60183 IgG
Q: Does B14 bind [3]?
A: binds

B15: 61275 (IgG) (antibody, V domains shown)
VH: B1 VH with V32S, I48M, A68V, L70M, R100A
VL: B1 VL with N96A
Q: Does B15 bind [1]?
A: binds

B16: 61255 (Fab) (Fab, V domains shown)
VH: B1 VH with V32Y, R100D, P101A
VL: B1 VL with I35H, S48P, N96A
notes: also called clone 61255 Fab
Q: Does B16 bind [16]?
A: binds

B17: 61285 (Fab) (Fab, V domains shown)
VH: B1 VH with V32S, I48M, A68V, L70M, R100D, T102H
VL: B1 VL with N96S
Q: Does B17 bind [4]?
A: binds

B18: antibody clone 61278 (ADI-61278 IgG) (antibody, V domains shown)
VH: B1 VH with V32Y, I48M, A68V, L70M, R100D, P101A
VL: B1 VL with N96A
Q: B18 was tested. Which EC50 [5] did it give?
A: 0.13 nM

Q: And the EC50 [17]?
A: 0.11 nM

B19: ADI-61283 (IgG) (antibody, V domains shown)
VH: B1 VH with V32A, I48M, A68V, L70M, R100D, T102Y
VL: B1 VL with L59K, N96S
Q: Does B19 bind [18]?
A: binds

B20: 60183 (Fab) (Fab, V domains shown)
VH: B1 VH with V32T, I48M, A68V, L70M, R100K
VL: B1 VL
notes: also called ADI-60183; clone 60183 Fab
Q: Does B20 bind [16]?
A: binds
